Experimental findings from the supplement of paper PMC10567573 are described below.

± gives the standard deviation.

A short description of the data set: protein stability index of a GFP-peptide fusion (GPS, HEK-293T) (PSI 1-6); higher = more stable.
Setting [1] is: treatment: DMSO, c terminus: a fixed tail appended.
The mark [2] stands for this setting: treatment: MLN4924 1 uM, 8 h, c terminus: a fixed tail appended.
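Also: 24-mer peptide tiles fused after GFP, lentivirally expressed, FACS-sorted into six equal bins by GFP/DsRed ratio, decoded by Illumina sequencing, PSI is the read-weighted mean bin number.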

Turning to RHKSGVHQPPQAGAGDVVLLQREL [LYSMD4], the protein stability index reads like this: under setting [1], 4.08 ± 0.22; under setting [2], 4.16 ± 0.092.

On to RHMREENLRLQRKLQREMERREAL [CCDC6], for which the protein stability index stood at 3.96 ± 0.36 under setting [1] and 4.39 ± 0.15 under setting [2].

Turning to RHQRIHTGERPYECNECGKAFSRS [ZSCAN9], the protein stability index came to 3.29 ± 0.24 under setting [1] and 3.82 ± 0.31 under setting [2].

As to RILQDEQYLMASDMAGKIKLWDLR [DCAF4], the protein stability index was found to be 2.75 ± 0.34 under setting [1] and 3.01 ± 0.12 under setting [2].

In turn, RITITESNMKSRYTTEFHELEKIG [WEE1] yielded a protein stability index under setting [1] of 3.03 ± 0.37 and a protein stability index under setting [2] of 3.59 ± 0.55.

As for RKDLAKLHREVRSTPLTATPGGRG [VTI1B], the protein stability index runs as follows: under setting [1], 4.38 ± 0.17; under setting [2], 4.45 ± 0.17.

In the case of RKKSKPKKCVKKFVEYCDVNNDKS [SMOC2], the protein stability index came out at 3.52 ± 0.22 under setting [1] and 3.93 ± 0.58 under setting [2].

RKMEVEELSPLALGRFSLTPAEGD [CDC25B]: the protein stability index is, setting by setting: under setting [1], 4.66 ± 0.36; under setting [2], 4.79 ± 0.13.

RKVVQSLEQTAREILTLLQGVHQG [TSN]: the protein stability index reads like this: under setting [1], 2.34 ± 0.31; under setting [2], 2.81 ± 0.53.

As for RLFPYSQYYRWLNYGGVIKNYFQH [PRIM1], the protein stability index amounted to 2.15 ± 0.75 under setting [1] and 2.22 ± 0.52 under setting [2].

RLFTVNDVKVGGSKYGIINLQSLK [DCAF4]: the protein stability index under setting [1] amounted to 2.14 ± 0.14 and the protein stability index under setting [2] is 2.27 ± 0.37.

As to RLLELMNQHDTEMKYYIVHLKRHF [DYRK1B], the protein stability index by setting is: under setting [1], 2.35 ± 0.22; under setting [2], 2.54 ± 0.48.

With RLSSRYRYGQLIEINSHSLFSKWF [TRIP13], the protein stability index under setting [1] was determined as 2.12 ± 0.28 and the protein stability index under setting [2] amounted to 2.04 ± 0.38.

In the case of RMKEPSSPPPAPTSSTFGLQDGNL [CHCHD6], the protein stability index is, setting by setting: under setting [1], 4.63 ± 0.26; under setting [2], 4.53 ± 0.35.

Regarding RMLIHKTEDVNTLDSEKRTPLHVA [ANKRD44], the protein stability index was 4.06 ± 0.22 under setting [1] and 4.15 ± 0.39 under setting [2].

As for RNHMENGGDHRYVNNYTNSFGGEW [TRIM29], the protein stability index runs as follows: under setting [1], 3.13 ± 0.16; under setting [2], 3.15 ± 0.2.

As to RNRPKSTVNTHYFSIDEELVYENF [CDC14A], the protein stability index by setting is: under setting [1], 2.99 ± 0.37; under setting [2], 3.39 ± 0.38.

Take RPDRSSQGGSLPSEEKGHPQEESE [CHGB]: the protein stability index reads like this: under setting [1], 5.75 ± 0.27; under setting [2], 5.48 ± 0.38.

For RPEKHTKEQILEFLVLEQFLTILP [ZNF232], the protein stability index runs as follows: under setting [1], 3.03 ± 0.62; under setting [2], 3.4 ± 0.66.

The sequence RPFWEEEKTFWKEEKSFWEMEKSF [CCDC70] displayed a protein stability index under setting [1] of 2.71 ± 0.2 and a protein stability index under setting [2] of 3.19 ± 0.26.

In turn, RPLARPIKRGDILPPEKGREVAKE [RHOBTB1] gave a protein stability index under setting [1] of 5.17 ± 0.088 and a protein stability index under setting [2] of 4.97 ± 0.12.

RPPFGAAAVPGTQLSPSPTPASQS [SNAP91]: the protein stability index runs as follows: under setting [1], 4.79 ± 0.16; under setting [2], 4.86 ± 0.055.

Regarding RPPLRRVRMSADAMLKALLGSKHK [TNNI2], the protein stability index runs as follows: under setting [1], 3.01 ± 0.28; under setting [2], 3.21 ± 0.29.

As to RQAELAIERCIFPERIYQGSSGSY [PI4K2A], the protein stability index under setting [1] is 2.72 ± 0.39 and the protein stability index under setting [2] amounted to 2.82 ± 0.28.

With RQNDILQVVSQGWKYFKGNFYYFS [CD207], the protein stability index was determined as 2.3 ± 0.73 under setting [1] and 2.06 ± 0.58 under setting [2].

RQNSAPARMLSSNERDSSEPGNFI [CDC25A] came in with a protein stability index under setting [1] of 5.54 ± 0.31 and a protein stability index under setting [2] of 5.45 ± 0.14.

As to RRDCMWSGFSARERLERAVSDRLA [MYCL], the protein stability index is, setting by setting: under setting [1], 3.31 ± 0.23; under setting [2], 3.4 ± 0.18.

As for RRKSEAGSGAASSSGEDKENDGFV [CDC25B], the protein stability index came to 5.42 ± 0.29 under setting [1] and 5.49 ± 0.18 under setting [2].

Turning to RRRGSDPASGEVEASQLRRLNIKK [TMEM40], the protein stability index by setting is: under setting [1], 5.26 ± 0.23; under setting [2], 5.02 ± 0.24.

As to RRRPRQKEAGLSQSHDDLSNATAT [C2CD2L], the protein stability index under setting [1] stood at 5.23 ± 0.19 and the protein stability index under setting [2] came to 5.26 ± 0.24.

Regarding RRTPPGQQRPHPRSHSREPRAERK [ELOA2], the protein stability index is 5.332 ± 0.008 under setting [1] and 5.58 ± 0.17 under setting [2].

For RSDVEKGGKIIMPPSALDQLSRLN [UFD1], the protein stability index worked out at 3.55 ± 0.41 under setting [1] and 3.97 ± 0.28 under setting [2].

Turning to RSLQLRIQELELQAQIHGLPVPPT [TFE3], the protein stability index stood at 3.01 ± 0.19 under setting [1] and 2.89 ± 0.21 under setting [2].

Consider RSNVDFLETPELTSTMLVPASWWI [NECAB1], for which the protein stability index reads like this: under setting [1], 2.21 ± 0.43; under setting [2], 2.23 ± 0.48.

RTMAPEKLLKSMPILQGQIDALLE [SNAP91] displayed a protein stability index under setting [1] of 2.83 ± 0.16 and a protein stability index under setting [2] of 2.89 ± 0.27.

Regarding RTPLMYCVLADRLDCADALLKAGA [INVS], the protein stability index reads like this: under setting [1], 2.16 ± 0.35; under setting [2], 2.08 ± 0.15.

The sequence RTRDYKKTSLAPYVKVFEHFLENL [PRIM1] came in with a protein stability index under setting [1] of 2.11 ± 0.4 and a protein stability index under setting [2] of 2.48 ± 0.54.

For RTSVGVAVLGGFLYAVGGQDGVSC [KLHL20], the protein stability index turned out to be 2.37 ± 0.17 under setting [1] and 2.45 ± 0.38 under setting [2].

Turning to RVEASHLTTSQERELGIRQRDEQL [FBF1], the protein stability index by setting is: under setting [1], 4.91 ± 0.22; under setting [2], 5.13 ± 0.22.

As to RVEVLTDAGGWVLIDRSGRHFGTI [KCTD13], the protein stability index stood at 2.37 ± 0.46 under setting [1] and 2.38 ± 0.7 under setting [2].

With RVRTVLNEKQLHTLRTCYAANPRP [ISL2], the protein stability index by setting is: under setting [1], 2.74 ± 0.27; under setting [2], 2.96 ± 0.2.

For RVRVELQEQNGRLQAELAAQEALR [LRRC45], the protein stability index runs as follows: under setting [1], 4.58 ± 0.079; under setting [2], 3.98 ± 0.55.

For the sequence RYADLEAVNRARRPLARPIKPNEI [RHOBTB2], the protein stability index reads like this: under setting [1], 3.77 ± 0.21; under setting [2], 3.7 ± 0.22.

Consider RYHVIRKLGWGHFSTVWLCWDMQG [SRPK2], for which the protein stability index is, setting by setting: under setting [1], 2.83 ± 0.74; under setting [2], 2.69 ± 0.27.

In turn, RYLFEEDNLLRSTQKLSHSTKPSG [MATN2] displayed a protein stability index under setting [1] of 3.82 ± 0.3 and a protein stability index under setting [2] of 3.92 ± 0.3.

With RYPTISMVKPLLHMLLNTTLNIKE [ZBED1], the protein stability index came to 2.83 ± 0.58 under setting [1] and 3.37 ± 0.72 under setting [2].

As for RYQHGIAVIGNFLYVVGGQSNYDT [KLHL13], the protein stability index runs as follows: under setting [1], 2.42 ± 0.49; under setting [2], 2.44 ± 0.5.

With SAARVVLTSLLACLPAGPRVYFLK [DUSP5], the protein stability index runs as follows: under setting [1], 2.43 ± 0.23; under setting [2], 2.41 ± 0.12.

With SAFADIIHSLKESGQLWLDAYLHQ [FADS1], the protein stability index was 2.16 ± 0.4 under setting [1] and 2.25 ± 0.49 under setting [2].

In turn, SATLSWKQPPLSTVPADGYILELD [TRIM9] displayed a protein stability index under setting [1] of 3.52 ± 0.33 and a protein stability index under setting [2] of 3.63 ± 0.37.

For SCTPRMNRRMVGPDVIPLPHIYGA [FAM189A2], the protein stability index runs as follows: under setting [1], 2.23 ± 0.22; under setting [2], 2.27 ± 0.2.

On to SDKETDIDDRYGDLDSRTDSDIPE [CDS1], for which the protein stability index runs as follows: under setting [1], 5.54 ± 0.31; under setting [2], 5.43 ± 0.27.

On to SDLTLYLVVAVAAVSCVFLAFVIV [PCDHGA10], for which the protein stability index runs as follows: under setting [1], 2.97 ± 0.61; under setting [2], 2.71 ± 0.5.

Consider SDVIEYAKQKLDFFIRTSDSFDKF [PCMTD2], for which the protein stability index worked out at 2.36 ± 0.22 under setting [1] and 2.48 ± 0.19 under setting [2].

On to SEADPQALLQAMKDLDGMDADILG [FBF1], for which the protein stability index turned out to be 5.28 ± 0.25 under setting [1] and 5.16 ± 0.35 under setting [2].

For the sequence SEEELAAATTSKEQEPIGTDLDAV [MYBL2], the protein stability index by setting is: under setting [1], 5.71 ± 0.19; under setting [2], 5.58 ± 0.25.

SEEIRFYQLGEEAMEKFREDEGFL [KCNA3]: the protein stability index stood at 4.37 ± 0.27 under setting [1] and 4.44 ± 0.12 under setting [2].

With SEMEEEKRQAVNKAVANMQGEMDR [ZMYND11], the protein stability index is 5.41 ± 0.25 under setting [1] and 5.42 ± 0.29 under setting [2].

For the sequence SESNSATVEEPPTDPIPEDEKKE [SMARCE1], the protein stability index turned out to be 5.58 ± 0.47 (treatment: DMSO, c terminus: native) and 5.41 ± 0.1 (treatment: MLN4924 1 uM, 8 h, c terminus: native).

For the sequence SFCHGSSLKRHLKTHTGEKPHRCH [ZNF449], the protein stability index came to 3.45 ± 0.27 under setting [1] and 3.61 ± 0.34 under setting [2].

As to SFPPSLSSSSSSSPTSGSPRGSHS [LURAP1L], the protein stability index is, setting by setting: under setting [1], 4.96 ± 0.2; under setting [2], 5.01 ± 0.16.

Take SFTSSDKTIKSFFPHSGKDCLLCF [C8orf76]: the protein stability index was 2.47 ± 0.51 under setting [1] and 1.9 ± 0.44 under setting [2].

For SGLDSPSHAAPGPSPDSWVPRPGT [FCHO1], the protein stability index reads like this: under setting [1], 4.08 ± 0.18; under setting [2], 4.25 ± 0.19.

SGREHNFTRPNEKGEYEVAEGIGS [BTBD10]: the protein stability index by setting is: under setting [1], 5.11 ± 0.25; under setting [2], 4.99 ± 0.33.

As for SGRTQAQTRRASALIDRPAPYFER [EPB41L3], the protein stability index under setting [1] turned out to be 3.5 ± 0.56 and the protein stability index under setting [2] amounted to 3.72 ± 0.36.

For SGSLEILQLLLGCKARMERDGYGM [FEM1A], the protein stability index stood at 2.92 ± 0.51 under setting [1] and 3.05 ± 0.6 under setting [2].

In the case of SGVCLFAVFIALLPILGHRDYKIQ [PTGFR], the protein stability index is, setting by setting: under setting [1], 3.6 ± 0.45; under setting [2], 3.37 ± 0.12.

For SHSASATGNVCIEEIDVDGKFIRL [LMNB1], the protein stability index by setting is: under setting [1], 3.14 ± 0.22; under setting [2], 3.48 ± 0.23.

Turning to SHSCYHDTRSGFWYVCRTQGVEGD [TRIM35], the protein stability index is, setting by setting: under setting [1], 2.52 ± 0.27; under setting [2], 2.36 ± 0.29.

Turning to SIGLRDYAGNLHESGVHGALLALD [PPFIA4], the protein stability index under setting [1] worked out at 3.48 ± 0.11 and the protein stability index under setting [2] is 3.73 ± 0.45.

SKAKKLVCNINKGCGYGCQLHHVV [FUT8] showed a protein stability index under setting [1] of 2.71 ± 0.43 and a protein stability index under setting [2] of 2.19 ± 0.4.

For the sequence SKKEGKRQGPKEPPRKSGSFHSSG [PBXIP1], the protein stability index amounted to 4.98 ± 0.32 under setting [1] and 5.2 ± 0.2 under setting [2].
